Test [1] addresses Mouse cKIT on C57BL/6J bone marrow cells (mouse, UniProt P05532 25-979). Nature of the test: cell-based or functional assay.
Test [2] has as its target Human cKIT on human mobilized peripheral blood hematopoietic stem cells (human, UniProt P10721 26-976). Nature of the test: cell-based or functional assay.

The text below walks through data of patent US20190321483A1 (Novartis, published 2019).

B1: J4: Anti-cKIT Fab′4 conjugated to Compound (1), DAR 4 (Fab, V domains shown)
VH: QVQLQQSGPGLVKPSQTLSLTCAISGDSVSTNSAAWNWIRQSPSRGLEWLGRIYYRSQWLNDYAVSVKSRITINPDTSKNQFSLQLNSVTPEDTAVYYCARQLTYPYTVYHKALDVWGQGTLVTVSS
VL: DIELTQPPSVSVSPGQTASITCSGDNLGDQYVSWYQQKPGQAPVLVIYDDTDRPSGIPERFSGSNSGNTATLTISGTQAEDEADYYCQSTDSKSVVFGGGTKLTVLG
modifications: Compound (1) on native cysteine LC-214C (EU); Compound (1) on native cysteines HC-220C-226C-229C (EU)
In the case of B1, in test [1], the “EC50 (ng/ml), cell viability after 7 days, Mouse CD45+ cells” value is 3800 ng/mL; the “EC50 (ng/ml), cell viability after 7 days, Mouse cKIT+ cells” value was 8 ng/mL; the “EC50 (ng/ml), cell viability after 7 days, Mouse total nucleated cells” value was found to be 3800 ng/mL.

B2: J5: Anti-cKIT Fab′5 conjugated to Compound (1), DAR 4 (Fab, V domains shown)
VH: QVQLVQSGAEVKKPGESLKISCKGSGYSFTNYWIAWVRQMPGKGLEWMGIIYPSNSYTLYSPSFQGQVTISADKSISTAYLQWSSLKASDTAMYYCARVPPGGSISYPAFDHWGQGTLVTVSS
VL: DIELTQPPSVSVSPGQTASITCSGDNIGSIYASWYQQKPGQAPVLVIYRDNKRPSGIPERFSGSNSGNTATLTISGTQAEDEADYYCSVTDMEQHSVFGGGTKLTVLG
modifications: Compound (1) on native cysteine LC-214C (EU); Compound (1) on native cysteines HC-220C-226C-229C (EU)
Regarding B2, in test [1], the “EC50 (ng/ml), cell viability after 7 days, Mouse CD45+ cells” value is 210 ng/mL; the “EC50 (ng/ml), cell viability after 7 days, Mouse cKIT+ cells” value worked out at 120 ng/mL; the “EC50 (ng/ml), cell viability after 7 days, Mouse total nucleated cells” value was 210 ng/mL.

B3: J3: Anti-cKIT Fab′3 conjugated to Compound (1), DAR 4 (Fab, V domains shown)
VH: QVQLVQSGAEVKKPGSSVKVSCKASGGTFSSYAISWVRQAPGQGLEWMGTIGPFEGQPRYAQKFQGRVTITADESTSTAYMELSSLRSEDTAVYYCARGGYISDFDVWGQGTLVTVSS
VL: DIQMTQSPSSLSASVGDRVTITCRASQSISNYLAWYQQKPGKAPKLLIYDASSLQSGVPSRFSGSGSGTDFTLTISSLQPEDFATYYCQQYYYESITFGQGTKVEIKR
modifications: Compound (1) on native cysteine LC-214C (EU); Compound (1) on native cysteines HC-220C-226C-229C (EU)
For the molecule B3, in test [2], the “EC50 (ng/ml), cell viability after 7 days, Human CD34+ cells” value (from here on “EC50 (ng/ml) … Human CD34+ cells”) turned out to be 8 ng/mL; the “EC50 (ng/ml), cell viability after 7 days, Human CD90+ cells” value (“EC50 (ng/ml) … Human CD90+ cells” below) was 12 ng/mL; the “EC50 (ng/ml), cell viability after 7 days, Human total nucleated cells” value (shortened to “EC50 (ng/ml) … Human total nucleated cells”) is 45 ng/mL.

B4: J14: Anti-cKIT Fab′1 conjugated to mc-MMAF, DAR 4 (Fab, V domains shown)
VH: QVQLVQSGAEVKKPGSSVKVSCKASGGTFSSYAISWVRQAPGQGLEWMGVIFPAEGAPGYAQKFQGRVTITADESTSTAYMELSSLRSEDTAVYYCARGGYISDFDVWGQGTLVTVSS
VL: DIQMTQSPSSLSASVGDRVTITCRASQSISNYLAWYQQKPGKAPKLLIYDASSLQSGVPSRFSGSGSGTDFTLTISSLQPEDFATYYCQQYYYESITFGQGTKVEIKR
modifications: mc-MMAF on native cysteine LC-214C (EU); mc-MMAF on native cysteines HC-220C-226C-229C (EU)
B4: in test [2], the “EC50 (ng/ml) … Human CD34+ cells” value turned out to be 10 ng/mL; the “EC50 (ng/ml) … Human CD90+ cells” value turned out to be 11 ng/mL; the “EC50 (ng/ml) … Human total nucleated cells” value stood at 7 ng/mL.

B5: J17: Anti-cKIT Fab′2 conjugated to mc-MMAF, DAR 4 (Fab, V domains shown)
VH: QVQLVQSGAEVKKPGSSVKVSCKASGGTFSSHALSWVRQAPGQGLEWMGGIIPSFGTADYAQKFQGRVTITADESTSTAYMELSSLRSEDTAVYYCARGLYDFDYWGQGTLVTVSS
VL: DIQMTQSPSSLSASVGDRVTITCRASQDISQDLAWYQQKPGKAPKLLIYDASSLQSGVPSRFSGSGSGTDFTLTISSLQPEDFAVYYCQQYYYLPSTFGQGTKVEIKR
modifications: mc-MMAF on native cysteine LC-214C (EU); mc-MMAF on native cysteines HC-220C-226C-229C (EU)
For the molecule B5, in test [2], the “EC50 (ng/ml) … Human CD34+ cells” value came to 16 ng/mL; the “EC50 (ng/ml) … Human CD90+ cells” value amounted to 37 ng/mL; the “EC50 (ng/ml) … Human total nucleated cells” value was 12 ng/mL.

B6: J16: Anti-cKIT Fab′1 conjugated to Compound (2), DAR 4 (Fab, V domains shown)
VH: QVQLVQSGAEVKKPGSSVKVSCKASGGTFSSYAISWVRQAPGQGLEWMGVIFPAEGAPGYAQKFQGRVTITADESTSTAYMELSSLRSEDTAVYYCARGGYISDFDVWGQGTLVTVSS
VL: DIQMTQSPSSLSASVGDRVTITCRASQSISNYLAWYQQKPGKAPKLLIYDASSLQSGVPSRFSGSGSGTDFTLTISSLQPEDFATYYCQQYYYESITFGQGTKVEIKR
modifications: Compound (2) on native cysteine LC-214C (EU); Compound (2) on native cysteines HC-220C-226C-229C (EU)
For B6, in test [2], the “EC50 (ng/ml) … Human CD34+ cells” value is 7 ng/mL; the “EC50 (ng/ml) … Human CD90+ cells” value was determined as 9 ng/mL; the “EC50 (ng/ml) … Human total nucleated cells” value amounted to 6 ng/mL.

B7: J20: Anti-cKIT Fab′3 conjugated to mc-MMAF, DAR 4 (Fab, V domains shown)
VH: QVQLVQSGAEVKKPGSSVKVSCKASGGTFSSYAISWVRQAPGQGLEWMGTIGPFEGQPRYAQKFQGRVTITADESTSTAYMELSSLRSEDTAVYYCARGGYISDFDVWGQGTLVTVSS
VL: DIQMTQSPSSLSASVGDRVTITCRASQSISNYLAWYQQKPGKAPKLLIYDASSLQSGVPSRFSGSGSGTDFTLTISSLQPEDFATYYCQQYYYESITFGQGTKVEIKR
modifications: mc-MMAF on native cysteine LC-214C (EU); mc-MMAF on native cysteines HC-220C-226C-229C (EU)
B7: in test [2], the “EC50 (ng/ml) … Human CD34+ cells” value worked out at 25 ng/mL; the “EC50 (ng/ml) … Human CD90+ cells” value is 72 ng/mL; the “EC50 (ng/ml) … Human total nucleated cells” value amounted to 20 ng/mL.

B8: J19: Anti-cKIT Fab′2 conjugated to Compound (2), DAR 4 (Fab, V domains shown)
VH: QVQLVQSGAEVKKPGSSVKVSCKASGGTFSSHALSWVRQAPGQGLEWMGGIIPSFGTADYAQKFQGRVTITADESTSTAYMELSSLRSEDTAVYYCARGLYDFDYWGQGTLVTVSS
VL: DIQMTQSPSSLSASVGDRVTITCRASQDISQDLAWYQQKPGKAPKLLIYDASSLQSGVPSRFSGSGSGTDFTLTISSLQPEDFAVYYCQQYYYLPSTFGQGTKVEIKR
modifications: Compound (2) on native cysteine LC-214C (EU); Compound (2) on native cysteines HC-220C-226C-229C (EU)
In the case of B8, in test [2], the “EC50 (ng/ml) … Human CD34+ cells” value worked out at 16 ng/mL; the “EC50 (ng/ml) … Human CD90+ cells” value amounted to 23 ng/mL; the “EC50 (ng/ml) … Human total nucleated cells” value is 14 ng/mL.

B9: J22: Anti-cKIT Fab′3 conjugated to Compound (2), DAR 4 (Fab, V domains shown)
VH: QVQLVQSGAEVKKPGSSVKVSCKASGGTFSSYAISWVRQAPGQGLEWMGTIGPFEGQPRYAQKFQGRVTITADESTSTAYMELSSLRSEDTAVYYCARGGYISDFDVWGQGTLVTVSS
VL: DIQMTQSPSSLSASVGDRVTITCRASQSISNYLAWYQQKPGKAPKLLIYDASSLQSGVPSRFSGSGSGTDFTLTISSLQPEDFATYYCQQYYYESITFGQGTKVEIKR
modifications: Compound (2) on native cysteine LC-214C (EU); Compound (2) on native cysteines HC-220C-226C-229C (EU)
For the molecule B9, in test [2], the “EC50 (ng/ml) … Human CD34+ cells” value came to 10 ng/mL; the “EC50 (ng/ml) … Human CD90+ cells” value came to 17 ng/mL; the “EC50 (ng/ml) … Human total nucleated cells” value worked out at 8 ng/mL.

B10: J18: Anti-cKIT Fab′2 conjugated to Compound (5), DAR 4 (Fab, V domains shown)
VH: QVQLVQSGAEVKKPGSSVKVSCKASGGTFSSHALSWVRQAPGQGLEWMGGIIPSFGTADYAQKFQGRVTITADESTSTAYMELSSLRSEDTAVYYCARGLYDFDYWGQGTLVTVSS
VL: DIQMTQSPSSLSASVGDRVTITCRASQDISQDLAWYQQKPGKAPKLLIYDASSLQSGVPSRFSGSGSGTDFTLTISSLQPEDFAVYYCQQYYYLPSTFGQGTKVEIKR
modifications: Compound (5) on native cysteine LC-214C (EU); Compound (5) on native cysteines HC-220C-226C-229C (EU)
For B10, in test [2], the “EC50 (ng/ml) … Human CD34+ cells” value was 11 ng/mL; the “EC50 (ng/ml) … Human CD90+ cells” value was determined as 3 ng/mL; the “EC50 (ng/ml) … Human total nucleated cells” value was 15 ng/mL.

B11: J15: Anti-cKIT Fab′1 conjugated to Compound (5), DAR 4 (Fab, V domains shown)
VH: QVQLVQSGAEVKKPGSSVKVSCKASGGTFSSYAISWVRQAPGQGLEWMGVIFPAEGAPGYAQKFQGRVTITADESTSTAYMELSSLRSEDTAVYYCARGGYISDFDVWGQGTLVTVSS
VL: DIQMTQSPSSLSASVGDRVTITCRASQSISNYLAWYQQKPGKAPKLLIYDASSLQSGVPSRFSGSGSGTDFTLTISSLQPEDFATYYCQQYYYESITFGQGTKVEIKR
modifications: Compound (5) on native cysteine LC-214C (EU); Compound (5) on native cysteines HC-220C-226C-229C (EU)
Take B11: in test [2], the “EC50 (ng/ml) … Human CD34+ cells” value was 5 ng/mL; the “EC50 (ng/ml) … Human CD90+ cells” value was 1 ng/mL; the “EC50 (ng/ml) … Human total nucleated cells” value came out at 6 ng/mL.

B12: J2: Anti-cKIT Fab′2 conjugated to Compound (1), DAR 4 (Fab, V domains shown)
VH: QVQLVQSGAEVKKPGSSVKVSCKASGGTFSSHALSWVRQAPGQGLEWMGGIIPSFGTADYAQKFQGRVTITADESTSTAYMELSSLRSEDTAVYYCARGLYDFDYWGQGTLVTVSS
VL: DIQMTQSPSSLSASVGDRVTITCRASQDISQDLAWYQQKPGKAPKLLIYDASSLQSGVPSRFSGSGSGTDFTLTISSLQPEDFAVYYCQQYYYLPSTFGQGTKVEIKR
modifications: Compound (1) on native cysteine LC-214C (EU); Compound (1) on native cysteines HC-220C-226C-229C (EU)
Take B12: in test [2], the “EC50 (ng/ml) … Human CD34+ cells” value is 11 ng/mL; the “EC50 (ng/ml) … Human CD90+ cells” value amounted to 16 ng/mL; the “EC50 (ng/ml) … Human total nucleated cells” value is 58 ng/mL.

B13: J21: Anti-cKIT Fab′3 conjugated to Compound (5), DAR 4 (Fab, V domains shown)
VH: QVQLVQSGAEVKKPGSSVKVSCKASGGTFSSYAISWVRQAPGQGLEWMGTIGPFEGQPRYAQKFQGRVTITADESTSTAYMELSSLRSEDTAVYYCARGGYISDFDVWGQGTLVTVSS
VL: DIQMTQSPSSLSASVGDRVTITCRASQSISNYLAWYQQKPGKAPKLLIYDASSLQSGVPSRFSGSGSGTDFTLTISSLQPEDFATYYCQQYYYESITFGQGTKVEIKR
modifications: Compound (5) on native cysteine LC-214C (EU); Compound (5) on native cysteines HC-220C-226C-229C (EU)
As for B13, in test [2], the “EC50 (ng/ml) … Human CD34+ cells” value worked out at 88 ng/mL; the “EC50 (ng/ml) … Human CD90+ cells” value was 22 ng/mL; the “EC50 (ng/ml) … Human total nucleated cells” value was found to be 154 ng/mL.

B14: J1: Anti-cKIT Fab′1 conjugated to Compound (1), DAR 4 (Fab, V domains shown)
VH: QVQLVQSGAEVKKPGSSVKVSCKASGGTFSSYAISWVRQAPGQGLEWMGVIFPAEGAPGYAQKFQGRVTITADESTSTAYMELSSLRSEDTAVYYCARGGYISDFDVWGQGTLVTVSS
VL: DIQMTQSPSSLSASVGDRVTITCRASQSISNYLAWYQQKPGKAPKLLIYDASSLQSGVPSRFSGSGSGTDFTLTISSLQPEDFATYYCQQYYYESITFGQGTKVEIKR
modifications: Compound (1) on native cysteine LC-214C (EU); Compound (1) on native cysteines HC-220C-226C-229C (EU)
Consider B14, for which, in test [2], the “EC50 (ng/ml) … Human CD34+ cells” value was determined as 11 ng/mL; the “EC50 (ng/ml) … Human CD90+ cells” value was determined as 13 ng/mL; the “EC50 (ng/ml) … Human total nucleated cells” value was found to be 48 ng/mL.
